Test results published in paper PMC5065237, “Investigation into the Mode of Phosphate Activation in the 4-Hydroxy-4-Methyl-2-Oxoglutarate/4-Carboxy-4-Hydroxy-2-Oxoadipate Aldolase from Pseudomonas putida F1” (PLoS ONE, 2016).

How the values were obtained:
Assay in all cases: purified protein
Type in all cases: biochemical, Pseudomonas putida
[1] = tested on: T1, CC(O)(CC(=O)C(=O)O)C(=O)O; details: without Pi, 1 mM MgCl2, 0.1 M HEPES pH 8.0, 25 °C, racemic substrate
T1 construct: recombinant from pT7-7, expressed in E. coli; chelex-treated apo-enzyme reconstituted with MgCl2

[2] = tested on: T2, O=C(O)CC(O)(CC(=O)C(=O)O)C(=O)O; details: without Pi, 1 mM MgCl2, 0.1 M HEPES pH 8.0, 25 °C, racemic substrate
T2 construct: recombinant from pT7-7, expressed in E. coli; chelex-treated apo-enzyme reconstituted with MgCl2

O=C(O)CC(=O)C(=O)O = tested on: T3, O=C(O)CC(=O)C(=O)O; details: without Pi, 1 mM MgCl2, 0.1 M HEPES pH 8.0, 25 °C
T3 construct: recombinant from pT7-7, expressed in E. coli; chelex-treated apo-enzyme reconstituted with MgCl2

Substance | Km [1] [µM] | kcat [1] [s⁻¹] | kcat/Km [1] [M⁻¹ s⁻¹] | Km [2] [µM] | kcat [2] [s⁻¹] | kcat/Km [2] [M⁻¹ s⁻¹] | Km (O=C(O)CC(=O)C(=O)O) [µM] | kcat (O=C(O)CC(=O)C(=O)O) [s⁻¹] | kcat/Km (O=C(O)CC(=O)C(=O)O) [M⁻¹ s⁻¹]
HMG/CHA aldolase (Pseudomonas putida F1; N71A) | 796 ± 70 | 0.014 ± 0.0011 | 17.6 ± 2.1 |  |  |  |  |  | 
HMG/CHA aldolase (Pseudomonas putida F1; G144V) | 1390 ± 160 | 0.215 ± 0.015 | 155 ± 21 |  |  |  |  |  | 
HMG/CHA aldolase (Pseudomonas putida F1) | 188 ± 11 | 15.6 ± 0.54 | 83000 ± 5600 | 15.0 ± 1.3 | 13.4 ± 0.31 | 893000 ± 80000 | 298 ± 30 | 1.86 ± 0.18 | 6240 ± 870
HMG/CHA aldolase (Pseudomonas putida F1; R123K) | 3210 ± 210 | 0.086 ± 0.0046 | 26.7 ± 2.3 |  |  |  |  |  | 
HMG/CHA aldolase (Pseudomonas putida F1; H75A) | 389 ± 22 | 22.3 ± 0.75 | 57300 ± 3800 |  |  |  |  |  | 
HMG/CHA aldolase (Pseudomonas putida F1; K147A) | 2010 ± 210 | 0.014 ± 0.00039 | 6.97 ± 0.75 |  |  |  |  |  | 
HMG/CHA aldolase (Pseudomonas putida F1; T145A) | 1080 ± 88 | 0.889 ± 0.057 | 823 ± 85 |  |  |  |  |  | 
HMG/CHA aldolase (Pseudomonas putida F1; R40A) | 304 ± 27 | 6.7 ± 0.14 | 22000 ± 2100 |  |  |  |  |  | 
HMG/CHA aldolase (Pseudomonas putida F1; R195A) | 1370 ± 58 | 6.72 ± 0.19 | 4910 ± 250 |  |  |  |  |  | 
